Measurements published in patent US20260218147, “CAS ENDONUCLEASE AND GUIDE RNA VARIANTS WITH IMPROVED EFFICIENCY” (PIONEER HI-BRED INTERNATIONAL, INC., published 2026).

T1: Cas-alpha 10 variant M45S+F54D+G81E+K85Q+G470D (synthetic construct, UniProt P0DW62 SEQ:1-497)
T1 chain: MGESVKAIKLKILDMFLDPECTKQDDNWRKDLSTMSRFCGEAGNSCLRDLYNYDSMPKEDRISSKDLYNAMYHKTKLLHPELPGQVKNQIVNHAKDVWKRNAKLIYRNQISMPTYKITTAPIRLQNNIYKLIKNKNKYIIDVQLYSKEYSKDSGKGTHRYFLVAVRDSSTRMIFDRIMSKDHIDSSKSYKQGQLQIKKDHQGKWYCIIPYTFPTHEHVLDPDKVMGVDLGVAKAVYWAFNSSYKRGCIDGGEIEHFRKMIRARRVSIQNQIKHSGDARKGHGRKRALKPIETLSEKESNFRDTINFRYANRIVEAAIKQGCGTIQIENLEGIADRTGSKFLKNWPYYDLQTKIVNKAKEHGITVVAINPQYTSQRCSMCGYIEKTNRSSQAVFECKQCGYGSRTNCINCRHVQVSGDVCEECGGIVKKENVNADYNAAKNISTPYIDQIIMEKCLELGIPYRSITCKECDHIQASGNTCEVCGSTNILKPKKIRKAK

T2: Cas-alpha 10 variant T34E+M45S+F54D+G81E+G470D (synthetic construct, UniProt P0DW62 SEQ:1-497)
T2 chain: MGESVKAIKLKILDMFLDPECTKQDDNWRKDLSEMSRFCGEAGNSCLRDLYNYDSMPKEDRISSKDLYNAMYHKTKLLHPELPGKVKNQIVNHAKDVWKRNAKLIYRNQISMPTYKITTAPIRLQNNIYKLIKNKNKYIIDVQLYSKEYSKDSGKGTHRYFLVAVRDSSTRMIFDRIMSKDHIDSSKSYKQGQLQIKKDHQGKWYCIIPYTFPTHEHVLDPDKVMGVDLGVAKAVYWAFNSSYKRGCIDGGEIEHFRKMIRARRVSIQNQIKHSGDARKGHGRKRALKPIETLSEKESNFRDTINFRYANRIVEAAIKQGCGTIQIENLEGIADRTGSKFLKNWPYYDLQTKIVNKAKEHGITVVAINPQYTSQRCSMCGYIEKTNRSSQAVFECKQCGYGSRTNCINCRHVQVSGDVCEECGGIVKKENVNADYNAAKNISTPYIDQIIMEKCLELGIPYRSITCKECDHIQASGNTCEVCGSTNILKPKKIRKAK

T3: Cas-alpha 10 variant M45S+F54D+G81E+G470D (synthetic construct, UniProt P0DW62 SEQ:1-497)
T3 chain: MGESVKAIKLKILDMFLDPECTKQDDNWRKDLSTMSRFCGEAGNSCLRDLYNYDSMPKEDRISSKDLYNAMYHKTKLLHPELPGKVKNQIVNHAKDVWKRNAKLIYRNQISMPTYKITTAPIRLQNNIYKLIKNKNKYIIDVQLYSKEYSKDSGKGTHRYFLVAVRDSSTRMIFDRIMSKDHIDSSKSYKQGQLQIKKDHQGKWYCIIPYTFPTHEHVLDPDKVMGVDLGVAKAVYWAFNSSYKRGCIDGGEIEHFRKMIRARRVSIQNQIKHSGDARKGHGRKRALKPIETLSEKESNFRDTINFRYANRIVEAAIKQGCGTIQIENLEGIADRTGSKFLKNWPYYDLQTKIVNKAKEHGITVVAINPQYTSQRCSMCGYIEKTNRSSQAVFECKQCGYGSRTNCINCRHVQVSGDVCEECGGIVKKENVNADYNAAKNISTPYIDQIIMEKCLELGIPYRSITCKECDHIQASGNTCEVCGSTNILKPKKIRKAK

T4: Cas-alpha 10 variant T34E+M45S+F54D+G81E+K85Q+G470D (synthetic construct, UniProt P0DW62 SEQ:1-497)
T4 chain: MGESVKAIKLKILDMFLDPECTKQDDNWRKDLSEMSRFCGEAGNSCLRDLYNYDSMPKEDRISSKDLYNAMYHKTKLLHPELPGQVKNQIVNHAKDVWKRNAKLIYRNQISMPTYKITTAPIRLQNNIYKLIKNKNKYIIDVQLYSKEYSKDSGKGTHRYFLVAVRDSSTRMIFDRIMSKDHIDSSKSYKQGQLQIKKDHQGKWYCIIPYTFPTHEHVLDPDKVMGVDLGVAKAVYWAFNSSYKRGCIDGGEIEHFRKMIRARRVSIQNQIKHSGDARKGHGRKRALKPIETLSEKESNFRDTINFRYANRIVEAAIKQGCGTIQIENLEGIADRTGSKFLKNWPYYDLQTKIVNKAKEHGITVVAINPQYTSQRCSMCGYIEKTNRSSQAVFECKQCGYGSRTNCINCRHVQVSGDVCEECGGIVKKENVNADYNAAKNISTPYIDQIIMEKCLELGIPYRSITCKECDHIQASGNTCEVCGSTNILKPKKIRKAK

T5: Cas-alpha 10 base variant (synthetic construct, UniProt P0DW62 SEQ:1-497)
T5 chain: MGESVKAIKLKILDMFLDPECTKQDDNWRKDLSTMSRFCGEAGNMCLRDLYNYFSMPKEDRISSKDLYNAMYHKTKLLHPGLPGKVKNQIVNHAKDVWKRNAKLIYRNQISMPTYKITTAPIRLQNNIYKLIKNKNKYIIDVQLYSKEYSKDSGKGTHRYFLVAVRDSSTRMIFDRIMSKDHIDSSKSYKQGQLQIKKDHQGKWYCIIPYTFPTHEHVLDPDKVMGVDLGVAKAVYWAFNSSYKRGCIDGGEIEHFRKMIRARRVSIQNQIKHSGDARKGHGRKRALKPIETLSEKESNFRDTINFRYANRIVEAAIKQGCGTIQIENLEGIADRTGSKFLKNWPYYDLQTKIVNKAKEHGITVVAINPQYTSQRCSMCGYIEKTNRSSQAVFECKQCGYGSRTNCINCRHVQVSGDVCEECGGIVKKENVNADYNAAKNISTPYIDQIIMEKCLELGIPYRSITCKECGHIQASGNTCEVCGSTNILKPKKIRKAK

T6: Cas-alpha 10 variant G81E (synthetic construct, UniProt P0DW62 SEQ:1-497)
T6 chain: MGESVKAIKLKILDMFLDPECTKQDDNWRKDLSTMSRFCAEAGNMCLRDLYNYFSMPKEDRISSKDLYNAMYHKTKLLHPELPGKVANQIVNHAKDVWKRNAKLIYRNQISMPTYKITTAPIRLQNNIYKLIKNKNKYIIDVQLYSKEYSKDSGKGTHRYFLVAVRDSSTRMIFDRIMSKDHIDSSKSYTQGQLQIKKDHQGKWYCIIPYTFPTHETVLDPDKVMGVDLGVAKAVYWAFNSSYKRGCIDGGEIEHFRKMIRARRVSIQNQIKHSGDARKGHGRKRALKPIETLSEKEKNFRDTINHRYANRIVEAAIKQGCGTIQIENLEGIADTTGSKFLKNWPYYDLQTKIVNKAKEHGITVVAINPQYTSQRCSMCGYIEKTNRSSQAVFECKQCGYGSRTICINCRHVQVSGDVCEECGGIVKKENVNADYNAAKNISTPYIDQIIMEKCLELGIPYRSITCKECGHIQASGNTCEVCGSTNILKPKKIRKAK

T7: Cas-alpha 10 wild type (Cas12f) (Syntrophomonas palmitatica, UniProt P0DW62 SEQ:1-497)
T7 sequence: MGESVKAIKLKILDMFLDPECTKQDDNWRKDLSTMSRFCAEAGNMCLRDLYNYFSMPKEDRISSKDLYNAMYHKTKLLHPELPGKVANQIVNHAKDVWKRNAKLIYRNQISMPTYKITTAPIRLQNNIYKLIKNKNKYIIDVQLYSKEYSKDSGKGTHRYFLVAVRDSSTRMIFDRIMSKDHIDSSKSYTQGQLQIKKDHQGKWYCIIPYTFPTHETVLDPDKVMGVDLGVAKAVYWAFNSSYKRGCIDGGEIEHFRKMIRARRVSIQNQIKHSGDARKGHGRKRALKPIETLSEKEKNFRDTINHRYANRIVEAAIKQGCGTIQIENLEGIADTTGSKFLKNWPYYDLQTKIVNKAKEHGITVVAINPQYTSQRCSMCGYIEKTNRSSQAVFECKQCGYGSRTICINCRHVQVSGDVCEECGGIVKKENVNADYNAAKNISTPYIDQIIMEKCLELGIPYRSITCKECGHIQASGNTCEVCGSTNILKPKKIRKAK


How the values were obtained:
[1] = biological target: T1, Cas-alpha 10 variant …; assay: cell_activity; PAM GTTC; 37 C overnight; settings: tags: SV40 NLS; chain copies: 2
Experimental: (§1) K85Q was also predicted with AlphaFold to be involved in PAM recognition. Therefore, it was converted back to a K residue for M45S+F54D+G81E+K85Q+G470D (SEQ ID NO: 50) and T34E+M45S+F54D+G81E+K85Q+G470D (SEQ ID NO: 54) and re-tested using two ADE2 target sites. Testing was performed as described above and fold improvement in targeted DNA cleavage was calculated as described above, relative to the original protein.

[2] = biological target: T2, Cas-alpha 10 variant …; assay: cell_activity; PAM GTTC; 37 C overnight; settings: tags: SV40 NLS; chain copies: 2
Experimental: as §1

[3] = biological target: T3, Cas-alpha 10 variant …; assay: cell_activity; PAM GTTC; 37 C overnight; settings: tags: SV40 NLS
Experimental: as §1

[4] = biological target: T4, Cas-alpha 10 variant …; assay: cell_activity; PAM GTTC; 37 C overnight; settings: tags: SV40 NLS; chain copies: 2
Experimental: as §1

[5] = biological target: T5, Cas-alpha 10 base variant; assay: cell_activity; PAM GTTC; 37 C overnight; settings: tags: SV40 NLS; chain copies: 2
Experimental: as §1

[6] = biological target: T6, Cas-alpha 10 variant G81E; assay: cell_activity; PAM GTTC; maize, 3x4 hr 45 C; settings: tags: SV40 NLS; chain copies: 2
Experimental: (§2) The resulting T-DNA was then placed into LBA4404, a thymine auxotrophic strain of Agrobacterium tumefaciens, containing Vir9, a separate plasmid encoding the Bo542 virulence genes (US20170121722A1 and WO 2017/078836). The resulting Agrobacterium strain was then used to transform nine-to-ten-day old immature maize embryos (approximately 2 mm in size) by submersion in 700A liquid media containing the strain at an optical density (OD) of 0.4 to 2.0 at 550 nm for 5 min. and then removed from the media and placed on solid co-cultivation medium overnight at 21° C. in the dark. Following T-DNA delivery, embryos are transferred to resting media, 13266R, and grown in the dark at 28° C. for 5-7 days. Next, coleoptiles were removed, and embryos transferred to selection media for 11-16 days and kept in the dark at 28° C. They were then moved to maturation media and incubated for 14-25 days in the dark at 28° C. and then subject to light for 2-5 days. Next, they were moved to rooting media and incubated at 26-28° C. under light for 14-28 days refreshing media as needed. To examine Cas-alpha nuclease-guide RNA activity, transformed tissue was incubated at 28° C., standard for Agrobacterium transformation, or at a range of temperatures lower or higher than 28° C.
(§3) In a third study, the efficiency of targeted mutagenesis of Cas-alpha 10 endonuclease variants, SEQ ID NOs:14, 48, 60, and 157, were compared when tested with two sgRNA recognition domains, SEQ ID NOs:61 and 327, at two target sites, MS26 and D8. Experiments were carried-out in Zea mays using Agrobacterium (Agro) transformation as described in Example 2. Two temperature regimens were performed. The first subjected Agro transformed embryos (once per day) to 45° C. for 4 hrs on days 3, 4, and 5 (3×4 hr 45° C.) after infection and the second to a continuous incubation at 37° C. on days 1-3 (1-3d 37° C.) following infection. For both regimens, embryos were placed at 28° C. before and after temperature treatment. […]

[7] = biological target: T7, Cas-alpha 10 wild type (Cas12f); assay: cell_activity; PAM GTTC; maize, 3x4 hr 45 C; settings: tags: SV40 NLS; chain copies: 2
Experimental: as §2, §3

Binder | activity [1] [% red yeast] | activity [2] [% red yeast] | activity [3] [% red yeast] | activity [4] [% red yeast] | activity [5] [% red yeast] | activity [6] [% targeted mutagenesis] | activity [7] [% targeted mutagenesis]
sgRNA ADE2-CR1 ; ADE2-CR1 target (ssRNA ; dsDNA) RNA: AUUUACUCUGUUUCGCGCGCCAGGGCAGUUAGGUGCCCUAAAAGAGCGAAGUGGCCGAAAGGAAAGGCUAACGCUUCUCUAACGCUACGGCGACCUUGGCGAAAUGCCAUCAAUACCACGCGGCCCGAAAGGGUUCGCGCGAAACUGAGUAAUGAAAGUCGCAUCUUGCGUAAGCGCGUGGAUUGAAACCUACACUAAAGAAUCUUCAA DNA 1: GTTCCTACACTAAAGAATCTTCAA DNA 2: TTGAAGATTCTTTAGTGTAGGAAC | 5.19 | 64.5 | 45.4 | 7.48 | 2.76 | – | –
sgRNA MS26 (recognition domain SEQ 327) ; MS26 target (ssRNA ; dsDNA) RNA: GUUUCGCGCGCCAGGGCAGUUAGGUGCCCUAAAAGAGCGAAGUGGCCGAAAGGAAAGGCUAACGCUUCUCUAACGCUACGGCGACCUUGGCGAAAUGCCAUCAAUACCACGCGGCCCGAAAGGGUUCGCGCGAAACGAAAUAAGCGCGUGGAUUGAAACAAGUUCACGGCGUUCCAGGC DNA 1: GTTCAAGTTCACGGCGTTCCAGGC DNA 2: GCCTGGAACGCCGTGAACTTGAAC | – | – | – | – | – | 15.5 | 4.67
